{
  "source": "patent US6969760",
  "proteins": {"B1": {"name": "murine Jak2 protein tyrosine kinase (protein)", "chain": "MGMACLTMTEMEATSTSPVHQNGDIPGSANSVKQIEPVLQVYLYHSLGQAEGEYLKFPSGEYVAEEICVAASKACGITPVYHNMFALMSETERIWYPPNHVFHIDESTRHDILYRIRFYFPHWYCSGSSRTYRYGVSRGAEAPLLDDFVMSYLFAQWRHDFVHGWIKVPVTHETQEECLGMAVLDMMRIAKEKDQTPLAVYNSVSYKTFLPKCVRAKIQDYHILTRKRIRYRFRRFIQQFSQCKATARNLKLKYLINLETLQSAFYTEQFEVKESARGPSGEEIFATIIITGNGGIQWSRGKHKESETLTEQDVQLYCDFPDIIDVSIKQANQECSNESRIVTVHKQDGKVLEIELSSLKEALSFVSLIDGYYRLTADAHHYLCKEVAPPAVLENIHSNCHGPISMDFAISKLKKAGNQTGLYVLRCSPKDFNKYFLTFAVERENVIEYKHCLITKNENGEYNLSGTKRNFSNLKDLLNCYQMETVRSDSIIFQFTKCCPPKPKDKSNLLVFRTNGISDVQISPTLQRHNNVNQMVFHKIRNEDLIFNESLGQGTFTKIFKGVRREVGDYGQLHKTEVLLKVLDKAHRNYSESFFEAASMMSQLSHKHLVLNYGVCVCGEENILVQEFVKFGSLDTYLKKNKNSINILWKLGVAKQLAWAMHFLEEKSLIHGNVCAKNILLIREEDRRTGNPPFIKLSDPGISITVLPKDILQERIPWVPPECIENPKNLNLATDKWSFGTTLWEICSGGDKPLSALDSQRKLQFYEDKHQLPAPKWTELANLINNCMDYEPDFRPAFRAVIRDLNSLFTPDYELLTENDMLPNMRIGALGFSGAFEDRDPTQFEERHLKFLQQLGKGNFGSVEMCRYDPLQDNTGEVVAVKKLQHSTEEHLRDFEREIEILKSLQHDNIVKYKGVCYSAGRRNLRLIMEYLPYGSLRDYLQKHKERIDHKKLLQYTSQICKGMEYLGTKRYIHRDLATRNILVENENRVKIGDFGLTKVLPQDKEYYKVKEPGESPIFWYAPESLTESKFSVASDVWSFGVVLYELFTYIEKSKSPPVEFMRMIGNDKQGQMIVFHLIELLKSNGRLPRPEGCPDEIYVIMTECWNNNVSQRPSFRDLSFGWIKSGTV"}},
  "biological_target": "T1, wild type EPO receptor (EPOR) expressed in DA3(EPOR) cells or 3T3 fibroblasts, P14753",
  "T1 chain": "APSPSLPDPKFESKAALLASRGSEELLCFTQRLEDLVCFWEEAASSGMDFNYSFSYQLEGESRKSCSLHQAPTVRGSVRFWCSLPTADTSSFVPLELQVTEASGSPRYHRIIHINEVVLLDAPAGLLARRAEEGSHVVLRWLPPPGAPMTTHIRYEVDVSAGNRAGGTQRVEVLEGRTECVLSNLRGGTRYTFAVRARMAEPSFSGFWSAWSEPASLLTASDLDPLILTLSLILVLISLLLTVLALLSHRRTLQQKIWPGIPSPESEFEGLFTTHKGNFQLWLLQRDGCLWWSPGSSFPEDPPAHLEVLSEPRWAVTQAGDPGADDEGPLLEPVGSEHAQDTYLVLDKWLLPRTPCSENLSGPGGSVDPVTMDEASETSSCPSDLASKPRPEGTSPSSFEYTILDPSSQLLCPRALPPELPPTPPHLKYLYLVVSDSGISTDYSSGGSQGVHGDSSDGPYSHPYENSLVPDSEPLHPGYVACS",
  "data": [
    {"protein": "B1", "values": [
      {"measurement": "EPO-induced tyrosine phosphorylation of Jak2 in 3T3 fibroblasts expressing EPOR (Jak2 immunoprecipitation, 4G10 blot)", "result": "Following stimulation of the cells with EPO, a 130 kDa band, co-migrating with Jak2, was readily detected by a monoclonal antibody against phosphotyrosine (4G10)"}
    ]}
  ]
}
